The text below walks through data of publication PMC3285539 (Nature, 2012).

One experiment has as its target Rpt2 (S. cerevisiae, UniProt P40327 1-437). Kind of experiment: cryo-EM structure.
For a further experiment, the target named is T1, Rpn1 (S. cerevisiae, UniProt P38764 1-993).
T1 sequence: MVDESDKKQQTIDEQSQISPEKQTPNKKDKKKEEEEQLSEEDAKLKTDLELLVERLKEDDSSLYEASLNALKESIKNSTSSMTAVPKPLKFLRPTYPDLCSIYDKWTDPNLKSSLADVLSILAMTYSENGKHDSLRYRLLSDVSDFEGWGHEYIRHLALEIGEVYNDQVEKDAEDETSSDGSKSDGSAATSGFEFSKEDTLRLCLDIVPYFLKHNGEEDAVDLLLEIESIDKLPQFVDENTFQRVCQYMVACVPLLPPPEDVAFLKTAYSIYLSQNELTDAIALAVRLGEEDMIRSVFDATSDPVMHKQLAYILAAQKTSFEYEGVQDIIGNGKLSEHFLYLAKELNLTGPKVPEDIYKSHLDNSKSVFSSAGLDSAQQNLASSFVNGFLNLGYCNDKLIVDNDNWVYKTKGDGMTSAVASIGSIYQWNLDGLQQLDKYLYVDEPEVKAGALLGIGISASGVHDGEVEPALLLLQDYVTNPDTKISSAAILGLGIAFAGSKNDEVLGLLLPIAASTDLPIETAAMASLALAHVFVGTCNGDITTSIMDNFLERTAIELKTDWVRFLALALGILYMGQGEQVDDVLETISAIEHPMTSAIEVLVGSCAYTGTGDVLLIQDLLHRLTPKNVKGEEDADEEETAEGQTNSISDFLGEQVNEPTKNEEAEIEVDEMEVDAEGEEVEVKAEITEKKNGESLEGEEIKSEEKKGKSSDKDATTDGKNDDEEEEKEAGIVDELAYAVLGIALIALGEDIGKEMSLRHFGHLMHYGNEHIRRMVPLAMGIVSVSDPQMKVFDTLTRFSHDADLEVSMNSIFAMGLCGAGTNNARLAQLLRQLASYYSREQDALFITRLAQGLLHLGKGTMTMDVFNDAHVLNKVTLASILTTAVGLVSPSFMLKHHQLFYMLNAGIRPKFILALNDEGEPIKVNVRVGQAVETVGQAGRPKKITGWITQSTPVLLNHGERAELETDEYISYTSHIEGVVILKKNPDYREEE
Kind of experiment: cryo-EM structure.

The target in another experiment is T2, Rpn8 (recombinant lid) (S. cerevisiae, UniProt Q08723 1-338).
T2 sequence: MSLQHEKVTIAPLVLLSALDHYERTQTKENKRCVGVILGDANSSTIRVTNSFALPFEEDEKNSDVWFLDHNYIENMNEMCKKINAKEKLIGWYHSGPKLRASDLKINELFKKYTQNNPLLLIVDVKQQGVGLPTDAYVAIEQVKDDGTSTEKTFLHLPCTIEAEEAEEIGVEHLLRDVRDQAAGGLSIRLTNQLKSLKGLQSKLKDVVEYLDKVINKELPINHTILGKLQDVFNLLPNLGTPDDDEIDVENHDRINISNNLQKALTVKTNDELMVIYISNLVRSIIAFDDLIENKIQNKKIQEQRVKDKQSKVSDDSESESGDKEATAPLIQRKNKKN
Kind of experiment: negative-stain electron microscopy, 3D reconstruction.

A further experiment has as its target T3, Rpn5 (recombinant lid) (S. cerevisiae, UniProt Q12250 1-445).
T3 sequence: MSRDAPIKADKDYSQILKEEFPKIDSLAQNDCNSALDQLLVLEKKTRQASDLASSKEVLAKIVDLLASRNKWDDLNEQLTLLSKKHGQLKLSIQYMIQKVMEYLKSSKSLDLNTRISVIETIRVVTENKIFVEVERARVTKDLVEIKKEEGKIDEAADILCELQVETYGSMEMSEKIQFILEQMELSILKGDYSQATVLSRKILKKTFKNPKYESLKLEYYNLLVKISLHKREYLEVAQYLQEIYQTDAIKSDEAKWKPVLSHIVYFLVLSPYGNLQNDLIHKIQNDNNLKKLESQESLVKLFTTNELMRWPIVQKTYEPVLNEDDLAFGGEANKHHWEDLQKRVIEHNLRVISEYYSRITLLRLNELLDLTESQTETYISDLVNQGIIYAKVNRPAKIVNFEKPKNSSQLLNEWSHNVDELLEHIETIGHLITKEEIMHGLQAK
The experiment is described as above.

Chain of Rpt2 (P40327 whole entry): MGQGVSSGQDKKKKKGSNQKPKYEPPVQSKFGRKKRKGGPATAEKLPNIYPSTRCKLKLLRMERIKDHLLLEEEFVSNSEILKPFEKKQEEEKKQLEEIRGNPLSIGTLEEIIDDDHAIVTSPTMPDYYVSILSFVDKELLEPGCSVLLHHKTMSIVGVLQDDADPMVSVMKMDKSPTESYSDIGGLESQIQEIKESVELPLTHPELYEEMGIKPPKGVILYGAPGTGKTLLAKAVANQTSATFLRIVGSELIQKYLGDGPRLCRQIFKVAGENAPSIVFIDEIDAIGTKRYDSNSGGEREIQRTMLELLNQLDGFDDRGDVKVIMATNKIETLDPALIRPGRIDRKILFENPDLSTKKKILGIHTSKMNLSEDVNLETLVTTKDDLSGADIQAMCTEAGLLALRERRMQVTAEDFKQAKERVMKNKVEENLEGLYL

B1: 20S core subunit α4 (natural protein)
chain: MSGYDRALSIFSPDGHIFQVEYALEAVKRGTCAVGVKGKNCVVLGCERRSTLKLQDTRITPSKVSKIDSHVVLSFSGLNADSRILIEKARVEAQSHRLTLEDPVTVEYLTRYVAGVQQRYTQSGGVRPFGVSTLIAGFDPRDDEPKLYQTEPSGIYSSWSAQTIGRNSKTVREFLEKNYDRKEPPATVEECVKLTVRSLLEVVQTGAKNIEITVVKPDSDIVALSSEEINQYVTQIEQEKQEQQEQDKKKKSNH
For the molecule B1, the binding result with Rpt2 and in the experiment with Rpn1 was “binds” in each case.

B2: Rpn11-6xHis (recombinant lid) (enzyme)
chain: MERLQRLMMNSKVGSADTGRDDTKETVYISSIALLKMLKHGRAGVPMEVMGLMLGEFVDDYTVNVVDVFAMPQSGTGVSVEAVDDVFQAKMMDMLKQTGRDQMVVGWYHSHPGFGCWLSSVDVNTQKSFEQLNSRAVAVVVDPIQSVKGKVVIDAFRLIDTGALINNLEPRQTTSNTGLLNKANIQALIHGLNRHYYSLNIDYHKTAKETKMLMNLHKEQWQSGLKMYDYEEKEESNLAATKSMVKIAEQYSKRIEEEKELTEEELKTRYVGRQDPKKHLSETADETLENNIVSVLTAGVNSVAIK
Turning to B2, the binding result with Rpn8 (recombinant lid) and with Rpn5 (recombinant lid) was “binds” in each case.
